± gives the standard deviation of the averaged measurements.
Tested on: Saccharomyces cerevisiae
Assay: protein stability index of tFT-peptide fusion (C-terminal peptide) (PSI (0-1 scale)); higher = more stable (slower turnover)
Conditions: temperature: 30 C
Procedure: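 MPS profiling in S. cerevisiae of the yeast C-terminome library: the last 12 aa of each annotated ORF are fused to the C-terminus of a sfGFP-mCherry timer, after a GGGS linker. Cells are FACS-sorted into 8 mCherry/sfGFP bins and deep-sequenced. PSI runs from 0 (unstable) to 1 (stable); wild type and das1Δ backgrounds, two technical replicates each.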

[1] = genetic background: das1 deletion

Row | Sequence | protein stability index [1] | protein stability index (genetic background: wild type)
1 | RIIEYFEEYQCW [FRE6 C-terminal 12 aa] | 0.712 ± 0.014 | 0.731 ± 0.042
2 | EMKHSLFRNPFH [PIG2 C-terminal 12 aa] | 0.705 ± 0.014 | 0.678 ± 0.015
3 | DTVLRKFADYKI [MPS1 C-terminal 12 aa] | 0.7043 ± 0.0052 | 0.679 ± 0.032
4 | PMIWHLVKKQWK [TOM5 C-terminal 12 aa] | 0.686 ± 0.011 | 0.682 ± 0.052
5 | TYKRIKQDEKTD [ALG12 C-terminal 12 aa] | 0.7248 ± 0.0072 | 0.707 ± 0.015
6 | TIHTEVNIGIKQ [ENA1 C-terminal 12 aa] | 0.7199 ± 0.0013 | 0.736 ± 0.027
7 | GFQTGSAKATSA [RPL37B C-terminal 12 aa] | 0.703 ± 0.02 | 0.697 ± 0.019
8 | KRLTSRLNKKHK [SPN1 C-terminal 12 aa] | 0.6937 ± 0.0067 | 0.69 ± 0.046
9 | KLMVEEINLDID [FZO1 C-terminal 12 aa] | 0.7048 ± 0.0045 | 0.747 ± 0.092
10 | SASSTPSSTTMS [SPT20 C-terminal 12 aa] | 0.682 ± 0.0019 | 0.681 ± 0.011
11 | YNINDLYKSLTR [MAK32 C-terminal 12 aa] | 0.7059 ± 0.0029 | 0.711 ± 0.023
12 | NEKRNEPKPSTN [YTA12 C-terminal 12 aa] | 0.6938 ± 0.0025 | 0.656 ± 0.017
13 | TAYFICGMVIQL [YDL041W C-terminal 12 aa] | 0.349 ± 0.014 | 0.34 ± 0.011
14 | SEETKKSCCSGK [CUP1-1 C-terminal 12 aa] | 0.695 ± 0.01 | 0.757 ± 0.048
15 | SEINDDFHQWAQ [DEP1 C-terminal 12 aa] | 0.727 ± 0.021 | 0.698 ± 0.0071
16 | TNGLINQFKEWM [PGI1 C-terminal 12 aa] | 0.673 ± 0.015 | 0.736 ± 0.082
17 | ERPQDWFEDIGE [FCY1 C-terminal 12 aa] | 0.7168 ± 0.0043 | 0.686 ± 0.017
18 | KQIDVFNGPKRV [MIG2 C-terminal 12 aa] | 0.713 ± 0.0091 | 0.7313 ± 0.0019
19 | NAPRFGVEYQMT [PHO89 C-terminal 12 aa] | 0.72259 ± 0.00055 | 0.67 ± 0.017
20 | HFASSLVSFLSK [ICT1 C-terminal 12 aa] | 0.727 ± 0.028 | 0.7183 ± 0.0037
21 | SKEFVGSVYLNF [TRL1 C-terminal 12 aa] | 0.679 ± 0.009 | 0.678 ± 0.03

Row | Sequence | protein stability index [1] | protein stability index (genetic background: wild type)
22 | VVGFYFQGALSE [VNX1 C-terminal 12 aa] | 0.673 ± 0.025 | 0.708 ± 0.037
23 | ETARNLAEYNGE [SEC72 C-terminal 12 aa] | 0.701 ± 0.013 | 0.728 ± 0.0056
24 | VTVYGGRSRMSA [YJL152W C-terminal 12 aa] | 0.6989 ± 0.0061 | 0.702 ± 0.02
25 | LDKEMADYFEKK [YRA1 C-terminal 12 aa] | 0.693 ± 0.013 | 0.706 ± 0.035
26 | ESSKDVKRNNKD [SDH7 C-terminal 12 aa] | 0.691 ± 0.012 | 0.702 ± 0.03
27 | IAQNVSRSSQQV [YMD8 C-terminal 12 aa] | 0.6875 ± 0.00089 | 0.731 ± 0.016
28 | ELASYILKELNL [KIN2 C-terminal 12 aa] | 0.731 ± 0.028 | 0.702 ± 0.064
29 | ETGHISKDCPKA [GIS2 C-terminal 12 aa] | 0.698 ± 0.018 | 0.695 ± 0.013
30 | IWVVDSLGSLVG [YPL142C C-terminal 12 aa] | 0.6847 ± 0.00084 | 0.699 ± 0.037
31 | KTATTLPGRRFV [LUC7 C-terminal 12 aa] | 0.6923 ± 0.0011 | 0.704 ± 0.017
32 | CLFGMAWLSTIL [YIP4 C-terminal 12 aa] | 0.661 ± 0.015 | 0.623 ± 0.0079
33 | HETFDFRNLKLR [YER121W C-terminal 12 aa] | 0.701 ± 0.043 | 0.698 ± 0.024
34 | SLKPSEKKLYYL [NTH2 C-terminal 12 aa] | 0.721 ± 0.0073 | 0.663 ± 0.02
35 | TLFDLIEKKVTA [TAL1 C-terminal 12 aa] | 0.67 ± 0.0085 | 0.652 ± 0.028
36 | EKIKKILSELKK [NKP1 C-terminal 12 aa] | 0.705 ± 0.022 | 0.715 ± 0.021
37 | SHYHMWPIKRII [YMR082C C-terminal 12 aa] | 0.6853 ± 0.0064 | 0.567 ± 0.011
38 | ERINFVCETYGL [AIM14 C-terminal 12 aa] | 0.7 ± 0.018 | 0.7 ± 0.027
39 | YHAVDSTMSPKN [OST4 C-terminal 12 aa] | 0.693 ± 0.019 | 0.719 ± 0.047
40 | GCVRSMLRDLQR [GCR2 C-terminal 12 aa] | 0.6733 ± 0.0057 | 0.686 ± 0.01
41 | EEDEEDEENEEQ [UBX2 C-terminal 12 aa] | 0.716 ± 0.016 | 0.693 ± 0.043
42 | LGMINTVVSLDR [YBR221W-A C-terminal 12 aa] | 0.691 ± 0.022 | 0.672 ± 0.04

Row | Sequence | protein stability index [1] | protein stability index (genetic background: wild type)
43 | YPVGQVDRDVCC [TAD3 C-terminal 12 aa] | 0.6955 ± 0.0022 | 0.685 ± 0.037
44 | KPRWYRIWNFWC [GAP1 C-terminal 12 aa] | 0.803 ± 0.017 | 0.419 ± 0.024
45 | AQFKEYLYQNDF [HAM1 C-terminal 12 aa] | 0.704 ± 0.01 | 0.697 ± 0.022
46 | ATRKALETARSA [MRPL13 C-terminal 12 aa] | 0.718 ± 0.0076 | 0.728 ± 0.036
47 | SFFCRSSSKSSK [YSC83 C-terminal 12 aa] | 0.7232 ± 0.0053 | 0.724 ± 0.0074
48 | GGLDCKSNVFMR [PAC1 C-terminal 12 aa] | 0.697 ± 0.013 | 0.723 ± 0.0089
49 | GGNKQAPGLELG [YMR242W-A C-terminal 12 aa] | 0.6918 ± 0.0046 | 0.702 ± 0.006
50 | FDAVTKTLEKYA [YKR070W C-terminal 12 aa] | 0.68 ± 0.019 | 0.6879 ± 0.0054
51 | AESDDKSDNYGA [PRP45 C-terminal 12 aa] | 0.689 ± 0.032 | 0.717 ± 0.036
52 | AKFDGHAKTCHI [YBR051W C-terminal 12 aa] | 0.717 ± 0.021 | 0.70733 ± 5e-06
53 | TTEKKKKKCVLL [RHO1 C-terminal 12 aa] | 0.684 ± 0.0099 | 0.6878 ± 0.0017
54 | MTQWLEISILMN [YCL001W-A C-terminal 12 aa] | 0.544 ± 0.05 | 0.319 ± 0.034
55 | QKRKSRILSFIK [UBP9 C-terminal 12 aa] | 0.7208 ± 0.006 | 0.732 ± 0.047
56 | LAFRAHTMPNAP [ATO3 C-terminal 12 aa] | 0.699 ± 0.0097 | 0.694 ± 0.033
57 | MEKSDRYIQETW [TAH18 C-terminal 12 aa] | 0.7032 ± 0.0048 | 0.691 ± 0.009
58 | VADAMLDQGDVF [GDH3 C-terminal 12 aa] | 0.7137 ± 0.0052 | 0.6894 ± 0.0047
59 | SQIRTPLVMLLM [YOR318C C-terminal 12 aa] | 0.651 ± 0.025 | 0.454 ± 0.0056
60 | KGTCGCGESFMV [ISA1 C-terminal 12 aa] | 0.71 ± 0.0094 | 0.69 ± 0.045
61 | YGLNIGRPDFYR [TAF10 C-terminal 12 aa] | 0.725 ± 0.016 | 0.7099 ± 0.0023
62 | FDLIKLALQRKK [AGX1 C-terminal 12 aa] | 0.7118 ± 0.0048 | 0.68 ± 0.04
63 | DQTRDFGTSMEL [FOB1 C-terminal 12 aa] | 0.706 ± 0.0098 | 0.712 ± 0.0086

Row | Sequence | protein stability index [1] | protein stability index (genetic background: wild type)
64 | AETLLSQRSRDR [DNF2 C-terminal 12 aa] | 0.721 ± 0.028 | 0.692 ± 0.048
65 | FSSSVMIIMKAS [NFT1 C-terminal 12 aa] | 0.5186 ± 0.0012 | 0.115 ± 0.0065
66 | VTIFTWSSLLFV [TED1 C-terminal 12 aa] | 0.438 ± 0.0058 | 0.454 ± 0.0084
67 | IKRRSNVGVVML [NMT1 C-terminal 12 aa] | 0.6647 ± 0.003 | 0.6363 ± 0.0032
68 | QFFFTSRQKNYV [ERP4 C-terminal 12 aa] | 0.707 ± 0.014 | 0.654 ± 0.01
69 | NNLHSYEKRLHN [YAR075W C-terminal 12 aa] | 0.69 ± 0.019 | 0.7 ± 0.015
70 | CLILSCSWWILN [YJR020W C-terminal 12 aa] | 0.292 ± 0.0085 | 0.1518 ± 0.00025
71 | VEMAVKFGKNAF [RIB4 C-terminal 12 aa] | 0.696 ± 0.012 | 0.689 ± 0.059
72 | LNWLIKGILTED [HFI1 C-terminal 12 aa] | 0.753 ± 0.033 | 0.675 ± 0.039
73 | GSEIDFTDYLGP [PUT3 C-terminal 12 aa] | 0.729 ± 0.012 | 0.716 ± 0.017
74 | QLVKLQLVELKL [LAM5 C-terminal 12 aa] | 0.6108 ± 0.0024 | 0.602 ± 0.026
75 | LISCCCCCFRRC [YNL097W-A C-terminal 12 aa] | 0.6974 ± 0.004 | 0.669 ± 0.016
76 | AAANILFSDHAD [RAD23 C-terminal 12 aa] | 0.739 ± 0.032 | 0.733 ± 0.032
77 | NTNELTDEHRWI [PHO2 C-terminal 12 aa] | 0.6977 ± 0.0017 | 0.668 ± 0.017
78 | SPTRKRPPPRLS [INN1 C-terminal 12 aa] | 0.726 ± 0.0049 | 0.722 ± 0.0076
79 | WLTTKMSSSEAS [UIP4 C-terminal 12 aa] | 0.708 ± 0.014 | 0.741 ± 0.025
80 | NNVDVSWVDKLV [STB5 C-terminal 12 aa] | 0.712 ± 0.013 | 0.714 ± 0.046
81 | IGPLAFLVFKTA [DYN2 C-terminal 12 aa] | 0.67 ± 0.02 | 0.18 ± 0.011
82 | VFLYRKRIFIKL [GWT1 C-terminal 12 aa] | 0.606 ± 0.021 | 0.485 ± 0.023

From the supplement of paper PMC10724198
